Assay results: US20240018513A1, “SYNTHETIC INTRONS FOR TARGETED GENE EXPRESSION” (FRED HUTCHINSON CANCER CENTER, priority 2020, published 2024)

Key:
[1] = system: MEL202 cells (SF3B1R625G); experiment: RT-PCR of synthetic intron excision in uveal melanoma cells; assay type: cell-based; settings: endogenous SF3B1R625G
Source text: FIGS. 9A-9H: Branchpoint manipulation and combinatorial 3′ss mutations enhance SF3B1 mutation-dependent splicing. (9A) Diagrams of modifications in each intron relative to synMTERFD3i1-150. Deletions are specified as open intervals. Branchpoints were inserted in between the indicated positions. (9B) Relative viability of K562 cells expressing the indicated constructs, measured in the full screen. Relative viability estimated as fold-change in representation of each construct, measured by full-length intron sequencing from genomic DNA, at day 8 for GCV-treated relative to untreated samples. GCV concentration, 100 ug/mL. Vector is hPGK-PuroR-P2A-HSV-TK. Data represented as mean±s.d. Standard deviation was estimated as sample proportion standard deviation. (9C) Relative viability of K562 cells expressing the indicated constructs, measured in cells expressing each construct individually. […] Relative viability measured by ATP after 11 days of treatment and normalized to PBS-treated samples. […]
Total RNA was extracted using Direct-zol RNA Miniprep (Zymo Research). cDNA was synthesized using Superscript IV Reverse Transcriptase (Thermo Fisher Scientific) using the manufacturer's protocol. Amplicons were analyzed using agarose gel electrophoresis and quantified using ImageJ (Fiji). […]

[2] = system: T47D cells; experiment: T47D subcutaneous xenografts, doxycycline-inducible SF3B1 WT or K700E, GCV or PBS; assay type: in vivo, NSG mice; settings: GCV vs PBS

B1: intron_26: 150 nt MTERFD3 intron 1-derived synthetic intron, deletion 25to125; SEQ ID NO 58/66 (nucleic acid)
DNA 1: GTGAGTCGCCCCCTTCCTCTGCTCCGAGAGGGAAATGGGAATTAGGGTGGTGGCAGAGCCCAAAGAGGCCTTGTAGGCCATGGTAAGGCATTTCTATGTTTTATTTTACTTTGTCTTTATCCTAAAATGCCATTGGCAAGTTTATTGCAG
DNA 2: GTGAGTCGCCCCCTTCCTCTGCTCCGAGAGGGAAATGGGAATTAGGGTGGTGGCAGAGCCCAAAGAGGCCTTGTAGGCCATGGTAAGGCATTTCTATGTTTTATTTTACTTTGTCTTTATCCTAAAATGCCATTGGCAAGTTTATTGCAG
[1]
  excision / splicing of the synthetic intron (RT-PCR): excised in the context of endogenous SF3B1R625G, although less efficiently than for SF3B1K700E
[2]
  tumor burden (tumor volume): specifically reduced tumor burden in the GCV-treated arm engrafted with SF3B1K700E-expressing cells
